B1: caspase-9 (NCBI accession no: NP-001220.2), human, purchased from R&D Systems (protein)
chain: MDEADRRLLRRCRLRLVEELQVDQLWDALLSRELFRPHMIEDIQRAGSGSRRDQARQLIIDLETRGSQALPLFISCLEDTGQDMLASFLRTNRQAAKLSKPTLENLTPVVLRPEIRKPEVLRPETPRPVDIGSGGFGDVGALESLRGNADLAYILSMEPCGHCLIINNVNFCRESGLRTRTGSNIDCEKLRRRFSSLHFMVEVKGDLTAKKMVLALLELAQQDHGALDCCVVVILSHGCQASHLQFPGAVYGTDGCPVSVEKIVNIFNGTSCPSLGGKPKLFFIQACGGEQKDHGFEVASTSPEDESPGSNPEPDATPFQEGLRTFDQLDAISSLPTPSDIFVSYSTFPGFVSWRDPKSGSWYVETLDDIFEQWAHSEDLQSLLLRVANAVSVKGIYKQMPGCFNFLRKKLFFKTS
B2: caspase-8 (NCBI accession no: NP-001073593.1), human, purchased from R&D Systems (protein)
chain: SESQTLDKVYQMKSKPRGYCLIINNHNFAKAREKVPKLHSIRDRNGTHLDAGALTTTFEELHFEIKPHDDCTVEQIYEILKIYQLMDHSNMDCFICCILSHGDKGIIYGTDGQEAPIYELTSQFTGLKCPSLAGKPKVFFIQACQGDNYQKGIPVETDSEEQPYLEMDLSSPQTRYIPDEADFLLGMATVNNCVSYRNPAEGTWYIQSLCQSLRERCPRGDDILTILTEVNYEVSNKDDKKNMGKQMPQPTFTLRKKLVFPSD

Target: ApoHsp (cage protein formed by the fusion protein of Hsp, DEVD motif and histidine polymer, labelled with Cy5.5 and BHQ3)

Row | Protein | fluorescence signal (Cy5.5 dequenching after cleavage, 96-well plate, 37 C, 2 hours)
1 | B1 | fluorescence did not occur in reactions with another two capases at all
2 | B2 | fluorescence did not occur in reactions with another two capases at all
